Measurements as given in patent US12485179B2, “Cholecystokinin B receptor targeting for imaging and therapy” (Purdue Research Foundation, priority 2012, dated 2025).

Test system: HEK CCK2R tumor xenografts
Test: In vivo radio-imaging and bio-distribution, HEK CCK2R tumor xenografts
Parameters: species or system nu/nu mice
Procedure: In order to test the in vivo specificity of CRL-3 chelated with ^99mTc, HEK CCK2R and CCK2i4svR subcutaneous tumors were produced in nude mice according to known methods. Athymic female nu/nu mice were purchased from Harlan Laboratories and maintained on normal rodent chow and housed in a sterile environment on a standard 12 hour light and dark cycle for the duration of the study. All animal procedures were approved by the Purdue Animal Care and Use Committee in accordance with NIH guidelines.
150 microcurie of CRL-3 ^99mTc was injected intravenously into each mouse. FIGS. 3A-B show an overlay of whole-body radio-images on white light photographs of mice bearing images of HEK CCK2R (a, b) and HEK CCKRi4sv (c, d) tumor xenografts in nu/nu mice two hours after the administration of CRL-3 ^99mTc. Kidneys were shielded with a lead plate. Mice a and c had the radioactive conjugate administered along with 100 fold of free unlabeled targeting ligand. In mice b and d, only the radio-conjugate CRL-3 ^99mTc was administered. Arrows indicate location of the tumor.
Following the above radio-imaging studies, animals were dissected and selected organs/tissues were collected into pre-weighed γ-counter tubes. Radioactivity of weighed tissues and test compounds were counted in a γ-counter. CPM values were decay corrected and results were calculated as % injected dose per gram of wet tissue (% ID/g). FIGS. 4A-B show the bio-distribution of the CRL-3 ^99mTc in mice having HEK CCK2i4svR and HEK CCK2R tumors. Error bars represent the standard deviation (n=5 mice/group).
Since small molecules are often excreted via the kidneys^43, we next elected to determine whether uptake of CRL-3 ^99mTc in the kidneys might be transient. […] By 24 h post tail vein injection, tumor to tissue ratios of CRL-3 ^99mTc in the muscle, heart, skin, blood, liver, and spleen were 90, 83, 30, 61, 4 and 14, respectively (see also Table 3).

[1] = 0.5, 2, 4, 8 hours post tail vein injection

CC(C)(C)C(=O)CN1C(=O)[C@H](NC(=O)Nc2cccc(C(=O)NCCCCCCCC(=O)N[C@H](CCC(=O)O)C(=O)N[C@H](CCC(=O)NC[C@H](O)[C@@H](O)[C@H](O)[C@H](O)CO)C(=O)N[C@H](CCC(=O)O)C(=O)N[C@H](CCC(=O)NC[C@H](O)[C@@H](O)[C@H](O)[C@H](O)CO)C(=O)NC[C@@H]3[NH][99Tc]45[S]C[C@@H](C(=O)O)[N]4C(=O)[C@H](CC(=O)O)[N]5C3=O)c2)CN(C2CCCCC2)c2ccccc21 (stereo partly shown) [CRL-3 ^99mTc]
content of the kidneys over time (SPECT-CT) [1]: decreased significantly over time | uptake in the tumor mass over time (SPECT-CT) [1]: relatively stable | accumulation of radio-conjugate, whole-body radio-image (150 microcurie i.v., two hours after administration, kidneys shielded): accumulated mainly in the receptor expressing tumor with little or no accumulation in other tissues except the kidney | tumor to tissue ratio, blood (24 h post tail vein injection): 61 | tumor to tissue ratio, heart (24 h post tail vein injection): 83 | tumor to tissue ratio, liver (24 h post tail vein injection): 4 | tumor to tissue ratio, muscle (24 h post tail vein injection): 90 | tumor to tissue ratio, skin (24 h post tail vein injection): 30 | tumor to tissue ratio, spleen (24 h post tail vein injection): 14 | Uptake of radioactivity, Blood (0.5 h post injection): 5.8 ± 2.7 % ID/g | Uptake of radioactivity, Blood (2 h post injection): 1.9 ± 0.97 % ID/g | Uptake of radioactivity, Blood (4 h post injection): 1.7 % ID/g | Uptake of radioactivity, Blood (8 h post injection): 0.24 % ID/g | Uptake of radioactivity, Blood (24 h post injection): 0.10 % ID/g | Uptake of radioactivity, Brain (0.5 h post injection): 0.13 % ID/g | Uptake of radioactivity, Brain (2 h post injection): 0.051 % ID/g | Uptake of radioactivity, Brain (4 h post injection): 0.053 % ID/g | Uptake of radioactivity, Brain (8 h post injection): 0.064 % ID/g | Uptake of radioactivity, Brain (24 h post injection): 0.0076 % ID/g | Uptake of radioactivity, Heart (0.5 h post injection): 2.3 ± 1.5 % ID/g | Uptake of radioactivity, Heart (2 h post injection): 0.68 ± 0.47 % ID/g | Uptake of radioactivity, Heart (4 h post injection): 0.59 % ID/g | Uptake of radioactivity, Heart (8 h post injection): 0.14 % ID/g | Uptake of radioactivity, Heart (24 h post injection): 0.076 % ID/g | Uptake of radioactivity, Large Intestine (0.5 h post injection): 1.0 ± 0.52 % ID/g | Uptake of radioactivity, Large Intestine (2 h post injection): 0.46 ± 0.20 % ID/g | Uptake of radioactivity, Large Intestine (4 h post injection): 0.53 % ID/g | Uptake of radioactivity, Large Intestine (8 h post injection): 0.24 % ID/g | Uptake of radioactivity, Large Intestine (24 h post injection): 0.13 % ID/g | Uptake of radioactivity, Left Kidney (0.5 h post injection): 11.2 ± 6.1 % ID/g | Uptake of radioactivity, Left Kidney (2 h post injection): 8.4 ± 4.6 % ID/g | Uptake of radioactivity, Left Kidney (4 h post injection): 13.4 % ID/g | Uptake of radioactivity, Left Kidney (8 h post injection): 6.0 % ID/g | Uptake of radioactivity, Left Kidney (24 h post injection): 2.6 % ID/g | Uptake of radioactivity, Liver (0.5 h post injection): 6.7 ± 3.6 % ID/g | Uptake of radioactivity, Liver (2 h post injection): 2.5 ± 2.4 % ID/g | Uptake of radioactivity, Liver (4 h post injection): 4.1 % ID/g | Uptake of radioactivity, Liver (8 h post injection): 1.9 % ID/g | Uptake of radioactivity, Liver (24 h post injection): 1.4 % ID/g | Uptake of radioactivity, Lungs (0.5 h post injection): 3.2 ± 1.7 % ID/g | Uptake of radioactivity, Lungs (2 h post injection): 1.2 ± 0.55 % ID/g | Uptake of radioactivity, Lungs (4 h post injection): 1.0 % ID/g | Uptake of radioactivity, Lungs (8 h post injection): 0.29 % ID/g | Uptake of radioactivity, Lungs (24 h post injection): 0.18 % ID/g | Uptake of radioactivity, Muscle (0.5 h post injection): 0.8 ± 0.37 % ID/g | Uptake of radioactivity, Muscle (2 h post injection): 0.29 % ID/g | Uptake of radioactivity, Muscle (4 h post injection): 0.3 % ID/g | Uptake of radioactivity, Muscle (8 h post injection): 0.093 % ID/g | Uptake of radioactivity, Muscle (24 h post injection): 0.070 % ID/g | Uptake of radioactivity, Pancreas (0.5 h post injection): 1.3 ± 0.62 % ID/g | Uptake of radioactivity, Pancreas (2 h post injection): 0.69 ± 0.84 % ID/g | Uptake of radioactivity, Pancreas (4 h post injection): 0.29 % ID/g | Uptake of radioactivity, Pancreas (8 h post injection): 0.10 % ID/g | Uptake of radioactivity, Pancreas (24 h post injection): 0.053 % ID/g | Uptake of radioactivity, Right Kidney (0.5 h post injection): 11.4 ± 6.3 % ID/g | Uptake of radioactivity, Right Kidney (2 h post injection): 7.6 ± 4.4 % ID/g | Uptake of radioactivity, Right Kidney (4 h post injection): 12.8 % ID/g | Uptake of radioactivity, Right Kidney (8 h post injection): 5.7 % ID/g | Uptake of radioactivity, Right Kidney (24 h post injection): 2.6 % ID/g | Uptake of radioactivity, Skin (0.5 h post injection): 2.3 ± 1.2 % ID/g | Uptake of radioactivity, Skin (2 h post injection): 1.0 ± 0.41 % ID/g | Uptake of radioactivity, Skin (4 h post injection): 1.1 % ID/g | Uptake of radioactivity, Skin (8 h post injection): 0.42 % ID/g | Uptake of radioactivity, Skin (24 h post injection): 0.21 % ID/g | Uptake of radioactivity, Small Intestine (0.5 h post injection): 1.2 ± 0.63 % ID/g | Uptake of radioactivity, Small Intestine (2 h post injection): 0.52 ± 0.28 % ID/g | Uptake of radioactivity, Small Intestine (4 h post injection): 0.52 % ID/g | Uptake of radioactivity, Small Intestine (8 h post injection): 0.19 % ID/g | Uptake of radioactivity, Small Intestine (24 h post injection): 0.13 % ID/g | Uptake of radioactivity, Spleen (0.5 h post injection): 2.1 ± 1.2 % ID/g | Uptake of radioactivity, Spleen (2 h post injection): 0.69 ± 0.70 % ID/g | Uptake of radioactivity, Spleen (4 h post injection): 1.4 % ID/g | Uptake of radioactivity, Spleen (8 h post injection): 0.65 % ID/g | Uptake of radioactivity, Spleen (24 h post injection): 0.45 % ID/g | Uptake of radioactivity, Stomach (0.5 h post injection): 1.2 ± 0.61 % ID/g | Uptake of radioactivity, Stomach (2 h post injection): 0.58 ± 0.32 % ID/g | Uptake of radioactivity, Stomach (4 h post injection): 0.56 % ID/g | Uptake of radioactivity, Stomach (8 h post injection): 0.24 % ID/g | Uptake of radioactivity, Stomach (24 h post injection): 0.15 % ID/g | Uptake of radioactivity, Tumor (0.5 h post injection): 7.4 ± 4.6 % ID/g | Uptake of radioactivity, Tumor (2 h post injection): 8.1 ± 5.1 % ID/g | Uptake of radioactivity, Tumor (4 h post injection): 12.0 % ID/g | Uptake of radioactivity, Tumor (8 h post injection): 8.5 % ID/g | Uptake of radioactivity, Tumor (24 h post injection): 6.3 ±3.7 % ID/g | bio-distribution of radiotracer in organs/tissues (after radio-imaging, n=5 mice/group): only the tumor and kidneys show excessive accumulation of radiotracer
